# Reference: PMC3474971
# Target: thrombin (UniProt P00734;P00734 328-363;364-622)
# Test: dye-displacement fluorescence; YOYO-1 25 nM, aptamer 10 nM; 20 mM Tris-Cl pH 7.5, 300 mM NaCl, 5 mM MgCl2, 10 mM KCl; 25 C; 30 min incubation with target before dye
binder,measurement,value
ATAGCGGAGGAAGGATACCTGGGGGAGTATAT (structured_DNA) [ATP aptamer],binding result,no binding
